Experimental data taken from US20220105194A1, “CONJUGATE COMPRISING LIGAND, SPACER, PEPTIDE LINKER, AND BIOMOLECULE” (ASTELLAS PHARMA INC., priority 2019, published 2022).
Like-named read-outs stand apart in the source and are kept apart here.

Key:
[1] = target: human cancer-specific MUC1; experiment: Example 6-2: ELISA binding activity of anti-human MUC1 antibody Fab^5 fragment conjugates; settings: immobilized human cancer-specific MUC1 peptide
Protocol: Each anti-human MUC1 antibody Fab^5 fragment conjugate prepared by the method of Example 5 was subjected to ELISA to evaluate the binding activity thereof to human cancer-specific MUC1. In the present test, 20×PBS/Tween 20 Buffer (Thermo Fisher Scientific Inc., 28352) diluted 20-fold with distilled water was used as a wash liquid. In addition, for bovine serum albumin (BSA) used in the present test, 30% Bovine Serum Albumin solution (Sigma-Aldrich, Inc., A9576-50ML) was added in an appropriate proportion for use. A human cancer-specific MUC1 peptide (PTL 1) at 0.5 μmol/L was added to a Nunc MaxiSorp White 384 plate (Nunc, 460372) at 30 μL per well, and the plate was incubated overnight at 4° C. for immobilization. The MUC1 peptide was removed by reverse centrifugation, and then blocking was carried out by adding a PBS/Tween 20 buffer containing 5.0% BSA. […] The substrate was incubated at room temperature for 15 minutes, and then a signal value thereof was measured using an Envision counter (PerkinElmer, Inc.).
The test for each antibody was carried out in duplicate, and the EC50 value was calculated using a 4-parameter logistic curve model.

[2] = target: human cancer-specific MUC1; experiment: Example 6-1: ELISA binding activity of anti-human MUC1 antibody Fab^5 fragment conjugates; settings: immobilized human cancer-specific MUC1 peptide, single runs of P10-2, read-out: EC50 value (nM) for each of 3 runs
[3] = parameters: species or system mice (BALB/c or BALB/c nu/nu); settings: mouse, in vivo
Protocol: (§1) A Gd-labeled conjugate of the conjugate containing a peptide linker produced in one of the above Examples was administered from the tail vein of mice (BALB/c or BALB/c nu/nu) so that the protein mass was 0.02 mg (100 μL) per animal. After about 24 hours, the mice were sacrificed and the kidneys were removed, and the amount of Gd in the kidneys was measured using ICP-MS. The present test was carried out in 3 cases in each group, the mean value of the 3 cases was calculated, and the amount of Gd contained per kidney after administration was shown as a percentage (% of dose/tissue) of the total amount of Gd administered.
Based on the amount of Gd contained in the kidneys of the control conjugate, the proportion of decrease in the amount of Gd contained in the kidneys of each of the conjugates having a peptide linker was determined.

[4] = test system: human breast cancer cell line MDA-MB-468; experiment: Example 8: amount of tumor accumulation of Gd-labeled conjugates (tumor-bearing mice); settings: MDA-MB-468 tumor-bearing mice, 24 hours; control conjugate Ex-No. 108, mean of 2 runs
Protocol: (§2) A Gd-labeled conjugate of the conjugate containing a peptide linker produced in one of the above Examples was administered from the tail vein of the tumor-bearing mice so that the protein mass was 0.02 mg (100 μL) per animal. As the tumor-bearing mice used in the present Example, mice (BALB/c nu/nu) that were in a tumor-bearing state brought about by transplanting human breast cancer cell line MDA-MB-468 (ATCC(registered trademark); HTB-132) at 5.0×10^6 cells/mouse subcutaneously on the back before administration of the sample were used. 24 hours after administration of the sample, the mice were sacrificed, the kidneys and the tumor were removed, and the amounts of Gd in the kidneys and in the tumor were measured using ICP-MS. The present test was carried out in 3 cases in each group, and the mean value of the 3 cases was calculated. The amount of Gd contained per kidney after administration was shown as a percentage of the amount of Gd administered (% of dose/tissue), and the amount of Gd contained per g of tumor tissue was shown as a percentage of the total amount of Gd administered (% of dose/g).

[5] = parameters: species or system mice (BALB/c nu/nu); settings: mouse, in vivo
Protocol: as §2

[6] = Example 4-1: kidney accumulation evaluation test of Gd-labeled conjugates (normal mice); settings: about 24 hours, relative to control conjugate Ex-No 47
Protocol: as §1
(§3) Based on the percentage of the control conjugate (% of dose/tissue), the proportion of decrease in the amount of Gd contained in the kidneys of each of the conjugates having a peptide linker was determined and shown in Table 28.

[7] = parameters: species or system mice (BALB/c nu/nu); settings: mouse, in vivo; remark: listed apart in the source
Protocol: (§4) A Gd-labeled conjugate of the conjugate containing a peptide linker produced in one of the above Examples was administered from the tail vein of tumor-bearing mice so that the protein mass was 0.02 mg (100 μL) per animal. As the tumor-bearing mice used in the present Example, mice (BALB/c nu/nu) that were in a tumor-bearing state brought about by transplanting human colorectal cancer cell line LS174T cells (ATCC(registered trademark); CL-188) at 2.0 to 5.0×10^6 cells/mouse subcutaneously on the back before administration of the sample were used. 24 hours after administration of the sample, the mice were sacrificed, the kidneys and the tumor were removed, and the amounts of Gd in the kidneys and in the tumor were measured using ICP-MS. The present test was carried out in 3 cases in each group, and the mean value of the 3 cases was calculated. The amount of Gd contained per kidney after administration was shown as a percentage of the amount of Gd administered (% of dose/tissue), and the amount of Gd contained per g of tumor tissue was shown as a percentage of the total amount of Gd administered (% of dose/g).

[8] = test system: human colorectal cancer cell line LS174T cells; experiment: Example 4-4: amount of tumor accumulation of Gd-labeled conjugates (tumor-bearing mice); settings: tail vein, 0.02 mg protein per animal, 24 hours, ICP-MS, mean of 3 cases
Protocol: as §4

[9] = mouse, in vivo
Protocol: as §1, §3

[10] = mouse, in vivo; remark: listed apart in the source
Protocol: as §1

[11] = parameters: species or system mice (BALB/c or BALB/c nu/nu); settings: mouse, in vivo; remark: listed apart in the source
Protocol: as §1

[12] = target: human cancer-specific MUC1 peptide (PTL 1) (human); experiment: ELISA, immobilised MUC1 peptide (Example 6-1)
Chain of human cancer-specific MUC1 peptide (PTL 1) (human) (main, as listed by the source): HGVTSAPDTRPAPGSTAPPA

[13] = target: human cancer-specific MUC1 peptide (PTL 1) (human); experiment: ELISA, immobilised MUC1 peptide (Example 6-2)

B1: P10-2: anti-human MUC1 antibody Fab fragment disclosed in International Publication WO2018/092885 (antibody)
heavy: QVQLVQSGAEVKKPGASVKVSCKASGYTFTNYGLSWVRQAPGQGLEWMGENHPGSGIIYHNEKFRGRVTLTADRSTSTAYMELSSLRSEDTAVYYCARSSGTRGFDYWGQGTLVTVSSASTKGPSVFPLAPSSKSTSGGTAALGCLVKDYFPEPVTVSWNSGALTSGVHTFPAVLQSSGLYSLSSVVTVPSSSLGTQTYICNVNHKPSNTKVDKKVEPKSCD
light: DVVMTQTPLSLSVTPGQPASISCRSSQSIVHSNGNTYLEWYLQKPGQSPQLLIYRVSNRFSGVPDRFSGSGSGTDFTLKISRVEAEDVGVYYCFQGSHGPWTFGQGTKLEIKRTVAAPSVFIFPPSDEQLKSGTASVVCLLNNFYPREAKVQWKVDNALQSGNSQESVTEQDSKDSTYSLSSTLTLSKADYEKHKVYACEVTHQGLSSPVTKSFNRGEC
EC50 ([1]; single runs of P10-2, read-out: EC50 value (nM) for each of 3 runs): 0.06 nM
EC50 [2]: 0.06 nM

B2: [Gd/DOTA-NH—CH2-(1,4-Ph)-NH—C(═O)-Met-Ile-NH—(CH2)2-(A-4 and/or A-5)]p-Fab^5 (conjugate)
heavy: B1 heavy
light: B1 light
Renal residual amount (normal mice), % of dose/tissue [3]: 2.30 % of dose/tissue

B3: [Gd/DOTA-NH—CH2-(1,4-Ph)-NH—C(═O)-Met-Ile-NH—(CH2)2-(A-3)]p-Fab^5 (conjugate)
heavy: B1 heavy
light: B1 light
Renal residual amount (normal mice), % of dose/tissue [3]: 2.80 % of dose/tissue

B4: [Gd/DOTA-NH—CH2-(1,4-Ph)-NH—C(═O)-Met-Ile-NH—(CH2)2—Z1(#S)]p-Fab^5 (conjugate)
heavy: B1 heavy
light: B1 light
EC50 ([1]; run in duplicate, read-out: EC50): 0.09 nM

B5: Ex-No 108 (conjugate)
heavy: B1 heavy
light: B1 light
Renal residual amount (normal mice), Mean (% of dose/tissue) [3]: 33.00 % of dose/tissue
Amount of tumor accumulation (% of dose/g), Mean [4]: 0.92 % of dose/g
Renal residual amount (% of dose/tissue), Mean [5]: 34.67 % of dose/tissue

B6: [Gd/DOTA-[2,5-(1,2,3,4-tetrahydroisoquinoline)]-C(═O)-Met-Gly-Lys*-Z2(#N)]p-Fab^2 (conjugate)
heavy: EVQLVESGGGLVQPGGSLRLSCAASGFNIRDTYMHWVRQAPGKGLEWVARIDPANGNSRYVPKFQGRFTISADTSRNTAYLQMNSLRAEDTAVYYCAPFGYYVSDYAMAYWGQGTLVTVSSASTKGPSVFPLAPSSKSTSGGTAALGCLVKDYFPEPVTVSWNSGALTSGVHTFPAVLQSSGLYSLSSVVTVPSSSLGTQTYICNVNHKPSNTKVDKKVEPKSCD
light: DIQLTQSPSSLSASVGDRVTITCRAGESVDIFGVGFLHWYQQKPGKAPKLLIYRASNLESGIPSRFSGSGSRTDFTLTISSLQPEDFATYYCQQTNEDPYTFGQGTKVEIKRTVAAPSVFIFPPSDEQLKSGTASVVCLLNNFYPREAKVQWKVDNALQSGNSQESVTEQDSKDSTYSLSSTLTLSKADYEKHKVYACEVTHQGLSSPVTKSFNRGEC
Proportion of decrease (%) in the amount of Gd contained in the kidneys [6]: 82.9%
Renal residual amount (cancer-bearing mice), % of dose/tissue [7]: 7.30 % of dose/tissue
Renal residual amount (cancer-bearing mice), Proportion of decrease (%) [7]: 71.74%
Amount of tumor accumulation (tumor-bearing mice), % of dose/g [8]: 4.53 % of dose/g

B7: [Gd/4arm-DOTA-CH2-(1,4-Ph)-NH—C(═S)—NH—CH2-(1,3-Ph)-C(═O)-Met-Gly-Lys*-Z2(#S)]p-Fab^2 (conjugate)
heavy: B6 heavy
light: B6 light
Proportion of decrease (%) in the amount of Gd contained in the kidneys [6]: 72.9%

B8: [Gd/4arm-DOTA-CH2-(1,4-Ph)-NH—C(═S)-Gly-Phe-Lys*-Z2(#N)]p-Fab^2 (conjugate)
heavy: B6 heavy
light: B6 light
Proportion of decrease (%) in the amount of Gd contained in the kidneys [6]: 68.0%

B9: [Gd/DOTA]p-Fab^2 (conjugate)
heavy: B6 heavy
light: B6 light
Geometric mean (% of dose/tissue) [9]: 31.0 % of dose/tissue
Renal residual amount (normal mice), % of dose/tissue [10]: 31.30 % of dose/tissue
Renal residual amount (% of dose/tissue), Mean [7]: 25.83 % of dose/tissue
Renal residual amount (% of dose/tissue), Mean [11]: 29.33 % of dose/tissue

B10: ([Gd/DOTA-NH-CH2-(1,4-Ph)-NH-C(═O)-Met-Ile-NH-(CH2)2-(A-3)]p-Fab^5) (Fab, V domains shown)
VH: QVQLVQSGAEVKKPGASVKVSCKASGYTFTNYGLSWVRQAPGQGLEWMGENHPGSGIIYHNEKFRGRVTLTADRSTSTAYMELSSLRSEDTAVYYCARSSGTRGFDYWGQGTLVTVSS
VL: DVVMTQTPLSLSVTPGQPASISCRSSQSIVHSNGNTYLEWYLQKPGQSPQLLIYRVSNRFSGVPDRFSGSGSGTDFTLKISRVEAEDVGVYYCFQGSHGPWTFGQGTKLEIKR
modifications: labeling portion on p amino groups of the Fab; chain and sites not stated
EC50 [12]: 0.15 nM

B11: Ex-No 108, conjugate with Fab^5 that does not contain a peptide linker (structure only as drawing CHEM-US-00162) (Fab, V domains shown)
VH: B10 VH
VL: B10 VL
modifications: labeling portion on p amino groups of the Fab; chain and sites not stated
EC50 [12]: 0.07 nM
EC50 [13]: 0.07 nM
